Assay results: patent US20240408194A1 (ARIZONA BOARD OF REGENTS ON BEHALF OF ARIZONA STATE …, published 2024)

Molecular target: spike B1.17 (SARS-CoV-2)

B1: LCB1 protein (designed binder)
chain: DKEWILQKIYEIMRLLDELGHAEASMRVSDLIYEFMKKGDERLLEEAERLLEEVER
  Kd: 0.27 nM
